Numbering of substitutions follows the chain as printed.
B1: recombinant humanized anti-CD66c antibody Protein ID 3058 (Vk8 + VH11) (antibody, human IgG1, V domains shown)
VH: QVQLVQSGAEVKKPGASVKISCKASGYSFTDYTMHWVKQAPGQNLEWIGLINPFGGSTSYAQKFKGRVTMTRDTSTNTAYMELSRLRSDDTAVYYCVRGDPVRHYYALAYWGQGTLVTVSS
VL: DIQMTQSPSTLSASVGDRVTITCRASENVYGTLNWYQRKPGKAPKLLIYGATNLADGMPSRFSGSGSGTEYTLTISSLQPDDFATYYCQNVLSAPYTFGGGTKLEIK
notes: also called hu 3058; #86
B2: recombinant humanized anti-CD66c antibody Protein ID 3007 (Vk7 + VH6) (antibody, human IgG1, V domains shown)
VH: QVQLVQSGAEVKKPGASMKISCKASGYSFTDYTMNWVKQAPGQNLEWIGLINPFHGGTVSNQRFKVKATLTVDVSTNTAYMELSRLRSDDTAVYYCVRGDPVRHYYALAYWGQGTLVTVSS
VL: B1 VL with R24G, M58V
notes: also called hu 3007; #43
B3: recombinant humanized anti-CD66c antibody Protein ID 2938 (Vk5 + VH7) (antibody, human IgG1, V domains shown)
VH: B2 VH with K38R, N44G
VL: B1 VL with R24G, N34A, M58V, T69R
notes: also called hu 2938
B4: recombinant humanized anti-CD66c antibody Protein ID 3043 (Vk8 + VH6) (antibody, V domains shown)
VH: B2 VH
VL: B1 VL
notes: also called hu 3043; #71
B5: anti-CD66c chimeric antibody 8F5 (antibody, human IgG1, V domains shown)
VH: EVQLQQSGPELVKPGASMKISCKASGYSFTDYTMNWVKQSHGKNLEWIGLINPFHGGTVSNQRFKVKATLTVDVSSNTAYMELLSLTSDDSAVYYCVRGDPVRHYYALAYWGQGTSVTVSS
VL: DIQMTQSPASLSASVGETVTITCGASENVYGTLNWYQRKQGKSPQLLIYGATNLADGMSSRFSGSGSGRQYSLKISSLHPDDVATYYCQNVLSAPYTFGGGTKLEII
notes: also called chimeric 8F5; chi 8F5

Target: T1, CEACAM1 antigen (Sino Biological, Inc.) (UniProt P13688 35-428)
T1 construct: Bought antigen, coated on the ELISA plate; construct not described; also called CEACAM1 (CD66a) antigen; CD66a
T1 sequence (looked up): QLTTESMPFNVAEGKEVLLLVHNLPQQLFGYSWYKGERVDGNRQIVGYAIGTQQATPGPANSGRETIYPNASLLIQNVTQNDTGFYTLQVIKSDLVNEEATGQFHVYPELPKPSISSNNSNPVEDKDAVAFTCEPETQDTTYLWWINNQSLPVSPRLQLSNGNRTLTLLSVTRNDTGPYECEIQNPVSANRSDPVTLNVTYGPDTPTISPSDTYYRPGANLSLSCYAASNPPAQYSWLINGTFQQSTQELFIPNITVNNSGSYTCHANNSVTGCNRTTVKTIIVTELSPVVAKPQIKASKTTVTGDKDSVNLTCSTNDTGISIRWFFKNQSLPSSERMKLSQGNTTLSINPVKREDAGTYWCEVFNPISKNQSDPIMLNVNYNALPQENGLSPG
Experiment: ELISA, CEACAM1 coated 100 ng/well, antibody at 0.51 ng/ml
Method: (§1) Antigen CD66c (CEACAM6; Sino Biological, Inc.) and CEACAM1 antigen (Sino Biological, Inc.) were coated on a 96-well plate at a rate of 100 ng per well and then blocked. The primary antibody was diluted 3-fold from 10 ug/ml and bound at 37° C. for 1 hour. […] goat anti-Human Ig-HRP conjugate (Jackson ImmunoResearch) as a secondary antibody was diluted 1:10,000 and incubated at 37° C. for 30 minutes. The washing was carried out at three times between each step, and the TMB reaction was performed, stopped with 1N H₂SO₄ solution at the same amount of TMB solution (100 ul) and then OD value was measured at 450 nm.

Binder	OD 450 nm [OD 450 nm]
B1	0.04
B2	0.11
B3	0.05
B4	0.1
B5	0.1

Target: T1, CEACAM1 antigen (Sino Biological, Inc.)
Experiment: ELISA, CEACAM1 coated 100 ng/well, antibody at 1.52 ng/ml
Method: as §1

Binder	OD 450 nm [OD 450 nm]
B1	0.05
B2	0.18
B3	0.05
B4	0.16
B5	0.16

Target: T1, CEACAM1 antigen (Sino Biological, Inc.)
Experiment: ELISA, CEACAM1 coated 100 ng/well, antibody at 1111.11 ng/ml
Method: as §1

Binder	OD 450 nm [OD 450 nm]
B1	0.19
B2	1.06
B3	0.21
B4	1.17
B5	1.21

Target: T2, Antigen CD66c (CEACAM6; Sino Biological, Inc.) (UniProt P40199 35-320)
T2 construct: Bought antigen, coated on the ELISA plate; construct not described; also called CECACAM6 (CD66c) antigen; CD66c antigen
T2 sequence (looked up): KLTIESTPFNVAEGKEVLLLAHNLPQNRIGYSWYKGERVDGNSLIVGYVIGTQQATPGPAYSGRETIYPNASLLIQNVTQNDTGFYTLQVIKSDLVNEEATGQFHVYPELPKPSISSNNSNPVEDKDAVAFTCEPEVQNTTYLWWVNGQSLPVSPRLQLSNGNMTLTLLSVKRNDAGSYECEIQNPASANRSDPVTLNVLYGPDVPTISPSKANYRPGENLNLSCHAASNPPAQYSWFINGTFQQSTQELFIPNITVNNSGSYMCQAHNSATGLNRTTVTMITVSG
Experiment: ELISA, CEACAM6 coated 100 ng/well, antibody at 3333.33 ng/ml
Method: as §1
(§2) As a result of the experiment, the binding affinities to CD66c antigen of the five kinds of recombinant humanized antibodies selected from among 96 kinds of recombinant humanized antibodies are shown in FIG. 4a, Table 12, FIG. 4b and Table 13. FIG. 4a and Table 12 show the binding capacity of the antibodies to CECACAM6 CD66c) antigen, and FIG. 4b and Table 13 are the results for the CEACAM1 (CD66a) antigen.

Binder	OD 450 nm [OD 450 nm]
B1	3.18
B2	3.24
B3	3.27
B4	2.95
B5	3.41

Target: T1, CEACAM1 antigen (Sino Biological, Inc.)
Experiment: ELISA, CEACAM1 coated 100 ng/well, antibody at 41.15 ng/ml
Method: as §1

Binder	OD 450 nm [OD 450 nm]
B1	0.07
B2	0.66
B3	0.07
B4	0.61
B5	0.82

Target: T1, CEACAM1 antigen (Sino Biological, Inc.)
Experiment: ELISA, CEACAM1 coated 100 ng/well, antibody at 0.17 ng/ml
Method: as §1, §2

Binder	OD 450 nm [OD 450 nm]
B1	0.04
B2	0.09
B3	0.04
B4	0.08
B5	0.08

Target: T1, CEACAM1 antigen (Sino Biological, Inc.)
Experiment: ELISA, CEACAM1 coated 100 ng/well, antibody at 370.37 ng/ml
Method: as §1

Binder	OD 450 nm [OD 450 nm]
B1	0.12
B2	0.92
B3	0.14
B4	0.8
B5	1.13

Target: T3, CD66c (Cluster of Differentiation 66c) on cells (UniProt P40199 35-320, limits assumed)
T3 construct: whole, on cells; also called CEACAM6; CEACAM 6
T3 sequence (looked up): T2 sequence (looked up)
Experiment: flow cytometry on CD66c-positive A549 cells, FITC anti-human IgG
Method: Each expressed 96 recombinant humanized antibody was poured and reacted in a test tube containing the same amount […] of CD66c-positive A549 non-small-cell lung cancer cell line at 4° C. for 30 minutes, washed with PBS, and treated with FITC-conjugated goat anti-Huma IgG (DiNona Inc, Korea) was added and incubated at 4° C. for 15 minutes. After washing with PBS, the cells were analyzed with a flow cytometer (Stratedigm, S1000EXi) and the results are shown below.
Among the 96 recombinant humanized antibody candidates, eight were firstly selected based on the degree of expression, the presence of aggregation, and the degree of cell binding (Table 9 and Table 10, FIGS. 3A to 3E).

Binder	% (% gated × mean), against the chimeric antibody [%]	% gated [%]	Mean (fluorescence)
B1	103	72	645
B2	88.8	71	565
B3	96	71	611
B4	105	69	686
B5	100	73	619

Source: patent publication US20220119518A1 (KUMHO HT, published 2022)
